Measurements from publication PMC3672139.
pKd: −log10 of the molar value.

Target: T1, RB1 (human) (UniProt P06400)
T1 sequence: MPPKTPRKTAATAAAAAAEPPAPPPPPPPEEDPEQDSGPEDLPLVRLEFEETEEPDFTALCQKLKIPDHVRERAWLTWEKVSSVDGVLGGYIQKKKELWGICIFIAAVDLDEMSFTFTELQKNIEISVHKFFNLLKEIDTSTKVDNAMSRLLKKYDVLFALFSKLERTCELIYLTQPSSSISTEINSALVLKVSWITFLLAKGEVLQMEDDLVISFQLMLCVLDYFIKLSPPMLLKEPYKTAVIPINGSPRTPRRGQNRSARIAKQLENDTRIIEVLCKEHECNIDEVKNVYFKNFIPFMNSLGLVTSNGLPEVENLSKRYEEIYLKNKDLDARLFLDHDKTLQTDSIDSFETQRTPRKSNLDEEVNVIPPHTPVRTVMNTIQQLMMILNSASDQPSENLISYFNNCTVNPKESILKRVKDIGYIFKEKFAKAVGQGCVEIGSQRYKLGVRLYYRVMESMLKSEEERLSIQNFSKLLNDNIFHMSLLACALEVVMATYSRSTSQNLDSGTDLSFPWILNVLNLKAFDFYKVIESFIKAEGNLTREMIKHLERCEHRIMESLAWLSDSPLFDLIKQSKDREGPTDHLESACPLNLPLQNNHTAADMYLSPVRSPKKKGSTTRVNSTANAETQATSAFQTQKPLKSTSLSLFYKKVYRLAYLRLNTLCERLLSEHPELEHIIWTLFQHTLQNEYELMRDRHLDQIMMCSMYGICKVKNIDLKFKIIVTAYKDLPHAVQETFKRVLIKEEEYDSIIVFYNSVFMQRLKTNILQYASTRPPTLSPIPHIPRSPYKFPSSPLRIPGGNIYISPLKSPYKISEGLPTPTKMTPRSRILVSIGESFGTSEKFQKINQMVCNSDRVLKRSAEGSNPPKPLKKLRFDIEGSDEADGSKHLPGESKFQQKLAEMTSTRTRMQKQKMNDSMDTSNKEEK
Assay: SPR
Details: DNA immobilized; 650 mM NaCl; 10 mM Tris-HCl, 150 mM NaCl, 5 mM KCl, pH 7.4; EMSA room temperature 30 min, 12% PAGE in TBE; SPR 25 C (RB1 SPR with 650 mM NaCl)

Work on CGGGGGGTTTTGGGCGGC [RB1 G4] yielded a pKd of 6.36.
